Results taken from US20250026814A1 (UNIVERSITY OF CHICAGO, published 2025).

T1: MERS-CoV RBD WT (MERS-CoV, UniProt K9N5Q8 367-606)
T1 sequence: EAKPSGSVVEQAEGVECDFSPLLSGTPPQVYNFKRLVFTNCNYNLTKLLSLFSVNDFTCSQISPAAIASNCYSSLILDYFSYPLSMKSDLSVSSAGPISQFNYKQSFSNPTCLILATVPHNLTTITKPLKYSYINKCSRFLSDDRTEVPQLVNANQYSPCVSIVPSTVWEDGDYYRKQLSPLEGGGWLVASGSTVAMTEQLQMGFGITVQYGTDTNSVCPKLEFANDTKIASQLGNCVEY


What was measured:
[1] = target: T2, SARS-CoV-2 spike receptor-binding domain (RBD), WT (SARS-CoV-2, UniProt P0DTC2 319-541); test: epitope specificity column of the table of RBD-reactive mAbs (ELISA)
T2 construct: domain: RBD

SARS-CoV-1 RBD WT = SARS-CoV-1 RBD WT (SARS-CoV-1, UniProt P59594 306-527); test: ELISA
MERS-CoV RBD WT = target: T1, MERS-CoV RBD WT; test: ELISA
[2] = target: T3, S1 monomeric WT (SinoBiological) (SARS-CoV-2, UniProt P0DTC2 16-685); test: ELISA
T3 construct: domain: S1

| Binder | binding result [1] | binding result (SARS-CoV-1 RBD WT) | further results |
| --- | --- | --- | --- |
| S728-209 (antibody, V domains shown) VH: QITLKESGPTLVKPTQTLTLTCTLSGFSLSTSGVSVGWIRQPPGKALEWLAVIFWDDDKRYNPSLKSRLTIAKDTSKSQVVLTMTNLDPVDTGTYYCVSGSSYYYYYYMDVWGKGTTVTVSS VL: DIQMTQSPSSVSASIGDRVTITCRASQDISTWLAWYQQKPGRAPNLLIYGASSLQSGVPSRFSGSGSGTDFTLTISSLQPEDFATYYCQQATSFPLTFGGGTKVEIK | binds | – | – |
| S564-152 (antibody, V domains shown) VH: QVQLVESGGGVVQPGRSLRLSCAASGFTFSYYGMHWVRQAPGKGLEWVAVIWYDGSNKHYADSVKGRFTISRDNSKNTLYLQMNSLRAEDTAVYYCAKNAAPYCSGGSCYGTYFDYWGQGTLVTVSS VL: DIQMTQSPSSLSASVGDRVTITCQASQDINNYLNWYQQKPGKAPKLLIYDASNLETGVPSRFSGSGSGTDFTFTISSLQPEDIATYYCQQYDNVPPHTFGQGTKLEIK | – | binds | – |
| S144-69 (antibody, V domains shown) VH: EVQLVQSGAEVKKPGESLKISCKGSGYSFTSYWIGWVRQMPGKGLEWMGIIYPGDSDTRYSPSFQGQVTISADKSITTAYLQWSSLKASDTAMYYCARTQTTNWFDSWGQGTLVTVSS VL: DIQMTQSPSTLSVSVGDRVTITCRASQSVSSWLAWYQQKPGKAPKLLIYDASSLESGVPSRFSGSGSGTEFTLTISSLQPDDFATYYCQQYNSFYTFGQGTKLEIK | – | binds | – |
| S728-1157 (antibody, V domains shown) VH: EVQLVESGGGLVQPGGSLRLSCAASGLLVSRNYMNWVRQAPGKGLEWVSIIYSGGSTFYADSVEGRFTISRDESKNTLYLQMNSLRTDDTAVYYCARDLSDYGGIDCWGQGTLVTVSS VL: YELTQPLSVSMALGQTARISCGGDNVGSQNVHWYQQRPGQAPVLVIYRDSNRPSGIPERFSGSKSGNTATLTISRAQAGDEADYYCQVWDSSTVAFGGGTKLTVL [S728-1157, listing 1 of 2 here] | binds | – | – |
| S728-1157 (antibody, V domains shown) VH: EVQLVESGGGLVQPGGSLRLSCAASGLLVSRNYMNWVRQAPGKGLEWVSIIYSGGSTFYADSVEGRFTISRDESKNTLYLQMNSLRTDDTAVYYCARDLSDYGGIDCWGQGTLVTVSS VL: YELTQPLSVSMALGQTARISCGGDNVGSQNVHWYQQRPGQAPVLVIYRDSNRPSGIPERFSGSKSGNTATLTISRAQAGDEADYYCQVWDSSTVAFGGGTKLTVL [S728-1157, listing 2 of 2 here] | – | no binding | – |
| S728-537 (antibody, V domains shown) VH: QVQLVQSGAEVKKPGASVKVSCKTSGYTFTGFYLHWLRQAPGQGLEWMGRINPNTGDTDYAQKFQGRVTMTRDTSISTAYMELSRLRADDTAVYYCARTPGQTRQLFVGTNVLDVWGQGTMVTVSS VL: DIQMTQSPSSVSASVGDRVTITCRASQGISSWLAWYQQKPGKAPKVLIFAASSLQSGVPSRFSGSGSGTDFTLTITSLQPEDFATYFCQQTNSFPPTFGGGTKVEIK [S728-537, listing 1 of 2 here] | binds | – | – |
| S728-537 (antibody, V domains shown) VH: QVQLVQSGAEVKKPGASVKVSCKTSGYTFTGFYLHWLRQAPGQGLEWMGRINPNTGDTDYAQKFQGRVTMTRDTSISTAYMELSRLRADDTAVYYCARTPGQTRQLFVGTNVLDVWGQGTMVTVSS VL: DIQMTQSPSSVSASVGDRVTITCRASQGISSWLAWYQQKPGKAPKVLIFAASSLQSGVPSRFSGSGSGTDFTLTITSLQPEDFATYFCQQTNSFPPTFGGGTKVEIK [S728-537, listing 2 of 2 here] | – | no binding (tested: 10 ug/ml top of dilution series) | binding result (MERS-CoV RBD WT): no binding (tested: 10 ug/ml top of dilution series) |
| S728-1981 (antibody, V domains shown) VH: QVQLVQSGAEVKKPGASVKVSCKTSGYTFTNYFMHWVRQAPGQGLEWMGIINPSGGSASYAQKFQGRITMTSDTSTSTVYMELSSLRSEDTAVYYCAREDIIVVVPARPLDYWGHGTLVTVSS VL: EIVLTQSPATLSLSPGERATLSCRASQSFSNYLAWYQQKPGQAPRLLIYDASNRATGIPARFSGSGSGTDFTLTISSLEPEDFAVYYCQQRSNWPPLLTFGGGTKVEIK | – | – | binding result [2]: binds |
| S24-1384 (antibody, V domains shown) VH: EVQLVESGGGLVQPGGSLRLSCAVSGFTFSSYSMNWVRQAPGKGLEWVSYISSSSSIIYYADSVKGRFTISRDNAKNSLYLQMNSLRAEDTAVYYCARDFLDYSRSYSYGMDVWGQGTTVTVSS VL: SYVLTQPPSVSVAPGQTARITCGGDNIGSKNVHWYQQKPGQAPVLVVFDDSDRPSGIPERFSGSNSGNTATLTISRVEAGDEADYYCQVWDSSSDHYVVFGGGTKLTVL | – | binds | – |
| S728-1261 (antibody, V domains shown) VH: QVQLQESGPGLVKPSGTLSLTCAVSGGSISNNNWWIWVRQPPGKGLEWIGEIHHSGSTDYNPSLKSRVTISIDKSKNQFSLRLSSVTAADTAVYYCARKPEPYYYYYYMDVWGKGTTVTVSS VL: ETVLTQSPGTLSLSPGERATLSCRASQSVSSSYITWYQQKPGQAPRLLIYGASSRATGIPDRFSGSGSGTDFTLTISRLEPEDFAVYYCQQYRSPWGLTFGPGTKVDIK | binds | – | – |
| S144-466 (antibody, V domains shown) VH: EVQLVQSGAEVKKPGESLKISCKGSGYRFTRYWIGWVRQMPGKGLEWMGIIYLGDSETRYSPSFQGQVTISADNSISTAYLQWSSLKASDTAMYYCARSSNWNYGDYWGQGTLVTVSS VL: DIQMTQSPSTLSASVGDRVTITCRASQSITSWLAWYQQKSGKAPKLLIYDASSLESGVPSRFSGSGSGTEFTLTISSLQPDDFATYYCQQYNSYPWTFGQGTKVEIK | – | binds | – |
| S728-1690 (antibody, V domains shown) VH: QVQLVQSGAEVVKPGSSVKVSCKASGGTFTRYAISWVRQAPGQGPEWMGRIIPMFGIANYAQRFQGRVTMTADKSTSTAYMELSSLRSEDTAVYYCATCQYYYDSSGYGSLDYWGQGTQVTVSS VL: EIVLTQSPGTLSLSPGERVTLSCRASQSISSNFLAWYQQKPGQAPRLLISGASSRATGIPDRFSGGGSGTDFTLTISRLEPEDFAVYYCQQYHSSPRTFGQGTKVEIK | – | no binding (tested: 10 ug/ml top of dilution series) | binding result (MERS-CoV RBD WT): no binding (tested: 10 ug/ml top of dilution series) |
| S728-369 (antibody, V domains shown) VH: QVQLQESGPGLVKPSQTLSLTCSVSGGSISSGGYYWSWIRQHPGKGLEWIGYMYYSGSTYYNPSLKSRVTIFVDTSKNHFSLKLTSVTAADTAVYYCARDSYENYYGSGSLEPNYHHYNMDVWGQGTTVTVSS VL: DVQMTQSPSTLSASIGDRVTITCRASQSISGWLAWYQQRPGKAPKLLIYRASSLDFGVPSRFSGNGSGTEFTLTISSLQPDDFATYYCQQYHTYRTFGQGTKVEVK | binds | – | – |
| S728-2036 (antibody, V domains shown) VH: QVHLVQSGAEIRKPGASVMVSCKASGYTFTDYYIHWVRQAPGQGLEWMGWINPNSGGTNYAQKFQGRVTMTRDTSIRTAYMELSRLRSDDAAVYYCAREGISMLRGVRSWFDPWGQGTLVTVSS VL: QSALTQPASVSGSPGQSITISCTGTSSDVGSYNLVSWYQQHPGKVPKLIIYEVTKRPSGVSNRFSGSKSGNTASLTISGLQTEDEADYYCCSYAGFSAWVFGGGTKLTVL | – | – | binding result [2]: binds |
| S144-509 (antibody, V domains shown) VH: EVQLVQSGAEVKKPGESLKISCKGSAYTFTTYWIGWVRQMPGKGLEWMGIIYPGDSDTRYSPSFQGQVTISADKSISTAYLQWSSLKASDTAMYYCARLLLVAGPFDYWGQGTLVTVSS VL: not shown | – | binds | – |
| S728-430 (antibody, V domains shown) VH: EVQLVESGGGLIQPGGSLRLSCAASGFTVSSNYMSWVRQAPGKGLEWVSVIYSGGSTYYADSVKGRFTISRDNSKNTLYLQMNSLRAEDTAVYYCARTPRGSRRGAFDIWGQGTMVTVSS VL: not shown [S728-430, listing 1 of 2 here] | binds | – | – |
| S728-430 (antibody, V domains shown) VH: EVQLVESGGGLIQPGGSLRLSCAASGFTVSSNYMSWVRQAPGKGLEWVSVIYSGGSTYYADSVKGRFTISRDNSKNTLYLQMNSLRAEDTAVYYCARTPRGSRRGAFDIWGQGTMVTVSS VL: not shown [S728-430, listing 2 of 2 here] | – | no binding (tested: 10 ug/ml top of dilution series) | binding result (MERS-CoV RBD WT): no binding (tested: 10 ug/ml top of dilution series) |
